Laboratory results as given in PMC8760489 (The Journal of Biological Chemistry, 2021).

Target: T1, His6-TviD (Salmonella enterica serovar Typhi, UniProt Q04974 1-831)
T1 sequence: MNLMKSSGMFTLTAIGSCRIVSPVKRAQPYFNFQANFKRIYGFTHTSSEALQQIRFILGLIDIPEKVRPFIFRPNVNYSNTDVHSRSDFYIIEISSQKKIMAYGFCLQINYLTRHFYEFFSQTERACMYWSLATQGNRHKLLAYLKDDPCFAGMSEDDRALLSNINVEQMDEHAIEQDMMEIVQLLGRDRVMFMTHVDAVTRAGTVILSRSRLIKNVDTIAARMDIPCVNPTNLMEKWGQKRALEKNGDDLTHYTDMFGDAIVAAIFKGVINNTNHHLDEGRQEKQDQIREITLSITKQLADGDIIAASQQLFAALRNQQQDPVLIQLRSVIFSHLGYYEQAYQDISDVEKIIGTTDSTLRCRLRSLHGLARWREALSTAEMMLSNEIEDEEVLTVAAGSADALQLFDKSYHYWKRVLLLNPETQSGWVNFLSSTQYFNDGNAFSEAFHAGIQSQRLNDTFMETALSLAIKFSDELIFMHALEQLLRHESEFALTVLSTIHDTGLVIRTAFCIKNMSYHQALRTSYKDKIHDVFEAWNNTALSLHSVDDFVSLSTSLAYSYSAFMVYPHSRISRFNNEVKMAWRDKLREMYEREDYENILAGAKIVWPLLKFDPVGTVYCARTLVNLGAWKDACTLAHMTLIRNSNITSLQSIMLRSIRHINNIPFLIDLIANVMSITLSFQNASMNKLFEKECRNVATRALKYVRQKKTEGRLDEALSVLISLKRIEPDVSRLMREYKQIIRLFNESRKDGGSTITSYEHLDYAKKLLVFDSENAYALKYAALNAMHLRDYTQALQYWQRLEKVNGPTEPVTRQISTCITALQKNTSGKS
Assay: […]

B1: TviE-FLAG (enzyme)
chain: MITQEEKLAALGKTCLTLKQEKKLAQAVALIDSELPTEALTSLAMLKKAEFLHDVNETERAYALYETLIAQNNDEARYEYARRLYNTGLAKDAQLILKKVSNGVQKKYNNYLGKINKICDLLERLEGKAIPVGTNTCIIAMKHAILFYRNRQPRQLPVGSFGRLALCTGSLGSGGAERQISRLAIEIARKYRQKGKIGGLKVEEPVELIIRSLTPELRQDFFLKEVLEEQVEVLEIAKITGNLFDDATIESPELRLLLSHLPPVCKYGIKHLVPHLCERKLDYLSVWQDSACLMIALAALIAGVPRIQLGLRGLPPVVRKRLFKPEYEPLYQALAVVPGVDFMSNNHCVTRHYADWLKLEAKHFQVVYNGVLPPSTEPSSEVPHKIWQQFTQKTQDADTTIGGVFRFVGDKNPFAWIDFAARYLQHHPATRFVLVGDGDLRAEAQKRAEQLGILERILFVGASRDVGYWLQKMNVFILFSRYEGLPNVLIEAQMVGVPVISTPAGGSAECFIEGVSGFILDDAQTVNLDQACRYAEKLVNLWRSRTGICQQTQSFLQERFTVEHMVGTFVKTIASQPR
Does B1 bind?
Result: binds
